Assays:
human serum albumin = biological target: T1, human serum albumin (human, UniProt P02768 25-609); assay: ELISA with Expi293 culture medium used directly, coated HSA, anti-Fc detection
T1 construct: Negative control protein; also called HSA
Description: (§1) FIG. 6. […] The VNAR-Fc fusion proteins were transiently expressed using Expi293 expression system. VNAR-Fc constructs contained signal peptide sequence in order to be secreted. Cell growth media was used directly in ELISA. HSA and mouse TfR2 were used as negative controls for unspecific binding. A clone in position 52 represents untransfected cells. Total Fc concentration was measured with capture and detection anti-Fc antibody pair using irrelevant VNAR-Fc at known concentration for standard curve.
(§2) The next day the plates were blocked with […] with 0.1% Tween20 (PBST) for 1 hour at room temperature. Transfected cells were spun down at 2000 rpm for 10 minutes and the collected supernatant was mixed with milk in PBST to a final 2.5% concentration and incubated for 30 minutes. 100 μl of blocked supernatant was transferred into coated plates and incubated for 1 hour. […] The plates were washed and developed with TMB detection solution before stopping the reaction with 1% HCl. Absorbance was measured at 450 nm. A VNAR-Fc at know concentration was used for standard curve to calculate VNAR-Fc expression level.

recombinant mouse TfR2 = biological target: T2, recombinant mouse TfR2 (mouse, UniProt Q9JKX3 103-798, limits assumed); assay: ELISA with Expi293 culture medium used directly, coated mouse TfR2, anti-Fc detection
T2 construct: Negative control protein
T2 sequence (looked up): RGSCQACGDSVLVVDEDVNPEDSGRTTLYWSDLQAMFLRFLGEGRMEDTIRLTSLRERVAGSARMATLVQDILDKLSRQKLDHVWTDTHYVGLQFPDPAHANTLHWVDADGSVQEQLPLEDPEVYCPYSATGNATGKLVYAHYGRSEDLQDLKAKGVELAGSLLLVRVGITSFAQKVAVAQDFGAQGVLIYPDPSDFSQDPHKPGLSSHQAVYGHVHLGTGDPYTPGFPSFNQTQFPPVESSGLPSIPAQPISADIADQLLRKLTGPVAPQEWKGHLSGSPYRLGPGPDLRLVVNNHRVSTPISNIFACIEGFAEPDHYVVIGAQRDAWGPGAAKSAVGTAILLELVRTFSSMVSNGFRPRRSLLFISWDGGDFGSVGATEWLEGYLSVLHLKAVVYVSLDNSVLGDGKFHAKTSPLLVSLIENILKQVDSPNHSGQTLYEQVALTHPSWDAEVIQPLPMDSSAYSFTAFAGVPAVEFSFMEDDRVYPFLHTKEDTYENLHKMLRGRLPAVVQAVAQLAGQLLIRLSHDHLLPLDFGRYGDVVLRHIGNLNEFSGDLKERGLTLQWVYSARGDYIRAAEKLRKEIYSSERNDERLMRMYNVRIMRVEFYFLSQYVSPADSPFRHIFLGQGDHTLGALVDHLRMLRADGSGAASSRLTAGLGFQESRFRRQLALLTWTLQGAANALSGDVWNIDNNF
Description: as §1, §2

[1] = biological target: T3, recombinant human TfR1 (transferrin receptor 1) (human, UniProt P02786 89-760); assay: ELISA with Expi293 culture medium used directly, coated human TfR1, anti-Fc detection, absorbance at 450 nm
T3 construct: Bought recombinant His-tagged protein; also called hTfR1
T3 sequence (P02786 89-760 limits assumed): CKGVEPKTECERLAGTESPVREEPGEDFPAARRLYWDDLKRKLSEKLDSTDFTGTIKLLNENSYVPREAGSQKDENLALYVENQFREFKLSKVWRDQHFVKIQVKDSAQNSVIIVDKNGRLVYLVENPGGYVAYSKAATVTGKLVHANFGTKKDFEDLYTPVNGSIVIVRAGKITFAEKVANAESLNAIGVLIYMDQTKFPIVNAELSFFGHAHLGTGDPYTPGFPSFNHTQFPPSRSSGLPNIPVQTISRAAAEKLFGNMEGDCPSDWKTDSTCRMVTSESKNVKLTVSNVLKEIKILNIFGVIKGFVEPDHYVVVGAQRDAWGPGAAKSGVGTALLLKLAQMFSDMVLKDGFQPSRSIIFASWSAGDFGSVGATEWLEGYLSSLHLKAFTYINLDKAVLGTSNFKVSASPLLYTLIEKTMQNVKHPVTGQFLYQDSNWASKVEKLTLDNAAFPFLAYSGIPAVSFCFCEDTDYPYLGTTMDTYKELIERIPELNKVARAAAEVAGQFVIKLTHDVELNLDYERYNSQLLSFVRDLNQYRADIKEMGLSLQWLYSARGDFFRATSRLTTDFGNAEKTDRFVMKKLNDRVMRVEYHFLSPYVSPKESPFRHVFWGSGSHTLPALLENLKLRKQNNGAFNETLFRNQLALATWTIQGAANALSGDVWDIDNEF
Description: as §1, §2

T1 sequence (P02768 25-609 limits assumed): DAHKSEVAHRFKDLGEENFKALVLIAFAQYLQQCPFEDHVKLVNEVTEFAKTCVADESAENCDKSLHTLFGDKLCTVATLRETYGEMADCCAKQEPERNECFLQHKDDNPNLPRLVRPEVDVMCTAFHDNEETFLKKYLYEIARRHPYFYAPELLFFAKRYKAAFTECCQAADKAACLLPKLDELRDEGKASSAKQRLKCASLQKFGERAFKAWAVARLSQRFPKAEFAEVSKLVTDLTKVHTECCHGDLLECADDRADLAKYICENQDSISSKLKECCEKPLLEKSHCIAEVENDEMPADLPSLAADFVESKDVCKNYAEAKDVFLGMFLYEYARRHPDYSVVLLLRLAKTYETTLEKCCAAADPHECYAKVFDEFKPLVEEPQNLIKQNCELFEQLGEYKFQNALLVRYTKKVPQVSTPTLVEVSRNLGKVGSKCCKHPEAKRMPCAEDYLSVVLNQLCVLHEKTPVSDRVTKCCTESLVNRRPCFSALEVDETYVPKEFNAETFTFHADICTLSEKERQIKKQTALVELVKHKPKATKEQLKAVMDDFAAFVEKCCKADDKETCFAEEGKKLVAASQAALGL

binding result (human serum albumin): no binding | binding result (recombinant mouse TfR2): no binding | binding result [1]: binds
B1: Clone 11 VNAR-Fc fusion protein (Fc fusion)
chain: ARVDQTPQTITKETGESLTINCVLRDSNCALPSTHWYRKKSGSTNEESISKGGRYVETVNSGSKSFSLRINDLTVEDSGTYRCKVLNFFTHTCVQVQKYDVYGGGTAVTVNA
notes: Bivalent VNAR-Fc; not shown: glycine/serine linker (GxSx)n extending the hinge; human IgG1 Fc (hinge, CH2, CH3) of pFUSE-hIgG1e3-Fc2; G236 also deleted
